Test results from paper PMC8494430, “Development of a fluorogenic ADAMTS-7 substrate” (Journal of Enzyme Inhibition and Medicinal Chemistry, 2021).
Read-outs that look alike come from different tables or passages of the source.

B1: Recombinant human tissue inhibitor of metalloproteinase (TIMP)-4 (natural protein)
chain: CSCAPAHPQQHICHSALVIRAKISSEKVVPASADPADTEKMLRYEIKQIKMFKGFEKVKDVQYIYTPFDSSLCGVKLEANSQKQYLLTGQVLSDGKVFIHLCNYIEPWEDLSLVQRESLNHHYHLNCGCQITTCYTVPCTISAPNECLWTDWLLERKLYGYQAQHYVCMKHVDGTCSWYRGHLPLRKEFVDIVQP

Tests used:
[1] = Appearance of solution upon dilution of peptide in assay buffer (solubility); format: physicochemical; settings: 10 mM DMSO stock diluted in assay buffer
Experimental: The cleavage sites ^193Arg↓Ala^194 and ^195Glu↓Ala^196 were chosen to design the FRET substrate ATS7FP0 (Table 1). This peptide covers residues Ala^188-Ala^198 in LTBP4S and contains a FAM/TAMRA fluorophore/quencher pair. The quencher is covalently linked to the ε amino group of an extra C-terminal lysine residue. Stock solutions were routinely prepared at 10 mM in DMSO and stored at −80 °C. […] This was most likely due to the high content in hydrophobic amino acids of this peptide, which added to the hydrophobicity of the fluorophore/quencher pair. Nevertheless, ATS7FP0 generated fluorescence upon cleavage by ADAMTS-7 (Figure 2(A)). With the aim to improve both solubility and cleavage rate by ADAMTS-7, seven additional peptides were designed using the sequence of ATS7FP0 as a starting point. The N-terminal alanine residue present in ATS7FP0 was removed to generate peptide ATS7FP7 with a reduced aliphatic index (Table 1). […] To assess the effect of a P4′ proline residue on the cleavage rate, peptide ATS7FP7 was modified to generate ATS7FP8. […] Since we also determined that ADAMTS-7 prefers arginine in P1 (Figure 1(D)), we mutated one alanine residue in the parental sequence into arginine with the aim to improve both cleavage rate and hydrophilicity, thus generating peptide ATS7FP3. […]

ADAMTS-7 [2] = target: T1, ADAMTS-7 (Homo sapiens, UniProt Q9UKP4); assay: Inhibition of ADAMTS-7 cleavage of FRET substrate ATS7FP7; format: biochemical
T1 construct: the recombinant construct ADAMTS7-T8, which lacks the C-terminal PLAC domain; made in house
T1 sequence (Q9UKP4 237-1631 limits assumed): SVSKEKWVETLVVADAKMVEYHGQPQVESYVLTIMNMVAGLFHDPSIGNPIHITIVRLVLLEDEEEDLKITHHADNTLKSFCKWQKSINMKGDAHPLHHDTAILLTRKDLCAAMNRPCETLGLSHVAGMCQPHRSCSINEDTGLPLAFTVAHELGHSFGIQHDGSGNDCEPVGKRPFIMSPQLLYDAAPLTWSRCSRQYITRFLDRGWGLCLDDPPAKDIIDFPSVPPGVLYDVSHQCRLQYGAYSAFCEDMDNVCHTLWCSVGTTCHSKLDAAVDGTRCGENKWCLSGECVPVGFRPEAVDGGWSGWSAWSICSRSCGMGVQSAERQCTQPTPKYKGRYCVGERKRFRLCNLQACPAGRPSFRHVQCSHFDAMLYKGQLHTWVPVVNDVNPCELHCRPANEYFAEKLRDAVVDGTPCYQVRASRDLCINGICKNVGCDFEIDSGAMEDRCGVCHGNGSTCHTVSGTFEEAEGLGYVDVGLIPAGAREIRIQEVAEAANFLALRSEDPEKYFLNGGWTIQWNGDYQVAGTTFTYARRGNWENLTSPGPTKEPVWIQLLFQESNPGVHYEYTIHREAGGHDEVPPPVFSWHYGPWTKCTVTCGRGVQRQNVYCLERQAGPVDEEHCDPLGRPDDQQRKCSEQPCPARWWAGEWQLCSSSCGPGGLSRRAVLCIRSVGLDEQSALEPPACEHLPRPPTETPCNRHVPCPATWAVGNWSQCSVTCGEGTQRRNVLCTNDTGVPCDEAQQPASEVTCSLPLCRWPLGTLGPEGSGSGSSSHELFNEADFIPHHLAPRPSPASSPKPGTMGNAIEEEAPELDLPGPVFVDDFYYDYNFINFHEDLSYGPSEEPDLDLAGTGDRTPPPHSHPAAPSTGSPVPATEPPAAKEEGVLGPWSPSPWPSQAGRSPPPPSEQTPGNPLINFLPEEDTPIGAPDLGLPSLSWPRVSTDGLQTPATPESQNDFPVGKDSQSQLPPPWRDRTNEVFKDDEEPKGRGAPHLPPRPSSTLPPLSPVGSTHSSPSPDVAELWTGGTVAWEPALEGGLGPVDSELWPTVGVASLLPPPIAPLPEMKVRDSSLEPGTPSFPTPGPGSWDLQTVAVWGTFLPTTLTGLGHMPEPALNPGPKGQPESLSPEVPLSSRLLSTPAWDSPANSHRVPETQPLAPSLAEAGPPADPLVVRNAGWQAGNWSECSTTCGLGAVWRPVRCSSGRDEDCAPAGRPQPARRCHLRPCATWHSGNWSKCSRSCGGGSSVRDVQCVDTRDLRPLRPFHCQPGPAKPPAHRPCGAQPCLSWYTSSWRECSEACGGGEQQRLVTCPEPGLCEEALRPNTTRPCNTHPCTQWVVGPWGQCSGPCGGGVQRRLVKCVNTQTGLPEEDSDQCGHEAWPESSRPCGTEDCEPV
Experimental: All enzyme assays were conducted in TNC-B buffer (50 mM Tris- HCl, pH 7.5, 150 mM NaCl, 10 mM CaCl2, and 0.02% NaN3) at 37 °C in 384 well plates (Cat. No: 784900, Greiner Bio-One, Austria). To avoid the formation of inhibitor or peptide aggregates, the detergent Brij-35 (0.05%) was added to TNC-B[13]. For inhibition studies, stock solutions of chemical compounds were prepared in dimethyl sulfoxide (DMSO) (10 mM). […] Blank samples were prepared using buffer only and the rate of cleavage for blank reactions was subtracted from the rates measured in the presence of enzyme. Upon addition of the indicated ADAMTS-7 FRET substrates (40 µM), the fluorescence was measured immediately using a FLUOstar Omega microplate reader (BMG Labtech, Germany) with an excitation filter wavelength of 485 nm and an emission filter wavelength of 520 nm.

[3] = target: ADAMTS7-T8 (recombinant human ADAMTS-7 construct lacking the C-terminal PLAC domain) (human) (UniProt Q9UKP4); assay: enzyme inhibition assay (cleavage of a FRET peptide); ADAMTS-7 (5 nM) pre-incubated 1 h at 37 °C with TIMP-4, then ATS7FP7 (40 µM) added; TNC-B buffer (50 mM Tris-HCl pH 7.5, 150 mM NaCl, 10 mM CaCl2, 0.02% NaN3) with 0.05% Brij-35; 384 well plates; apparent Ki from the Morrison equation for tight binding inhibitors
Sequence of ADAMTS7-T8 (recombinant human ADAMTS-7 construct lacking the C-terminal PLAC domain) (human) (Q9UKP4 28-1686): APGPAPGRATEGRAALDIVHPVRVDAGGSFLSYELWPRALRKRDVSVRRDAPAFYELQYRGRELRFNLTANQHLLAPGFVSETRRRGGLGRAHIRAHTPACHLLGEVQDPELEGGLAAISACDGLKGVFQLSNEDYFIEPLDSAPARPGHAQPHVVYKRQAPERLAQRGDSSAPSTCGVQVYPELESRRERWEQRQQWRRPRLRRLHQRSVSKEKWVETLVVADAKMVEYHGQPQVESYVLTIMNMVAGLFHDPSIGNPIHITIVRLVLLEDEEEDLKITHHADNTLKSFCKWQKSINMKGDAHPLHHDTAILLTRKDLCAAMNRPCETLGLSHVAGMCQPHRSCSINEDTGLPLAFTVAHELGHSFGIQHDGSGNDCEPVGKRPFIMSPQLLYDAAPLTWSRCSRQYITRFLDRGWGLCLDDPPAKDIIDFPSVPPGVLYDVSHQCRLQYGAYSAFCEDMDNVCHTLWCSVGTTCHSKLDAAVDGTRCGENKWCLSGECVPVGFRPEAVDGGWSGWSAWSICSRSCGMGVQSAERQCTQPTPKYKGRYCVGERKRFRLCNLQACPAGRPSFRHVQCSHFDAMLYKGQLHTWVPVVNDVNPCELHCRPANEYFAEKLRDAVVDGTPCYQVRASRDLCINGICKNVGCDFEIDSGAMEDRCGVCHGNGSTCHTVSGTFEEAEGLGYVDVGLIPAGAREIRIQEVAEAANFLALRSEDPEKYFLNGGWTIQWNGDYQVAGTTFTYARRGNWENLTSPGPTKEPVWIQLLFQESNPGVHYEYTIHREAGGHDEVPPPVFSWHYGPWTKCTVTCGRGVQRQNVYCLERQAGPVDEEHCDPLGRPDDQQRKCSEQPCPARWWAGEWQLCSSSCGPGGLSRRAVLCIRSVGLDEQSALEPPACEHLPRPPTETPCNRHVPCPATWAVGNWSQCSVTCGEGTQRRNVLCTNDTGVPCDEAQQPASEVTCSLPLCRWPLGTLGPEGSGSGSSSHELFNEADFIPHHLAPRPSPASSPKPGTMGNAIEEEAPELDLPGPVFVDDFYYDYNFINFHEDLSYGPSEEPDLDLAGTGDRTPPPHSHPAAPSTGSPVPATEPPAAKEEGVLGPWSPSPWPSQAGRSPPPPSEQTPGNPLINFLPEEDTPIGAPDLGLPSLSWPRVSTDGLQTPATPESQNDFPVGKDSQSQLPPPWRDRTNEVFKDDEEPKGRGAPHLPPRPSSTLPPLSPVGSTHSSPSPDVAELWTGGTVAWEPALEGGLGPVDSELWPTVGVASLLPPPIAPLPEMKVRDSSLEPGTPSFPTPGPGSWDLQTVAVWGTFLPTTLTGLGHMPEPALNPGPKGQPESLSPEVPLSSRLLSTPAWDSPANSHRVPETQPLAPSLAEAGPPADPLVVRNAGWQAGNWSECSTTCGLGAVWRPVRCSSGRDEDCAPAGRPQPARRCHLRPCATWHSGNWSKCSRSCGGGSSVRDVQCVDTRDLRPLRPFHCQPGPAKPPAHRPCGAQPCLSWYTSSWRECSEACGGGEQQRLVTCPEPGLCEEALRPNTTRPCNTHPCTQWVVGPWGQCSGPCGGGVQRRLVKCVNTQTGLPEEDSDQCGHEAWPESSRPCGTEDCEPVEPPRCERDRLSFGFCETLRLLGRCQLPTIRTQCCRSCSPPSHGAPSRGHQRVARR

[4] = target: ADAMTS7-T8 (recombinant human ADAMTS-7 construct lacking the C-terminal PLAC domain) (human) (UniProt Q9UKP4)
ADAMTS-7 [5] = target: T1, ADAMTS-7; settings: read-out: Ki app for inhibition of cleavage of LTBP4; cited from earlier work

| Molecule | appearance of solution upon dilution in the assay buffer (solubility) [1] | Ki (ADAMTS-7 [2]; 5 nM ADAMTS-7, Morrison equation for tight binding inhibitors, read-out: Ki app (ATS7FP7 substrate)) [nM] | IC50 (ADAMTS-7 [2]; ATS7FP7 40 μM, 1 h preincubation, 37 °C) [nM] | Ki [3] [nM] | IC50 of inhibition of ADAMTS-7 cleavage of the FRET peptide substrate ATS7FP7 [4] [nM] | Ki (ADAMTS-7 [5]) [nM] |
| --- | --- | --- | --- | --- | --- | --- |
| Ala-Glu-Ala-Ala-Ala-Arg↓Ala-Glu↓Ala-Ala-Ala-Lys [ATS7FP0] | non-homogenous | – | – | – | – | – |
| B1 | – | 3.2 ± 1 | 18 ± 6 | 3.2 | 18 | 13 |
